From publication PMC7144941
One block for each molecule: values may come before it.

Tests used:
[1] = molecular target: catalytically inactive H97A mutant of mouse endonuclease G lacking the N-terminal mitochondrial localization sequence (mouse); assay: crystal structure
[2] = molecular target: T1, i-mEndoG H97A (catalytically inactive mouse endonuclease G) (mouse, UniProt O08600 42-294, H138A); assay: X-ray crystallography
T1 sequence: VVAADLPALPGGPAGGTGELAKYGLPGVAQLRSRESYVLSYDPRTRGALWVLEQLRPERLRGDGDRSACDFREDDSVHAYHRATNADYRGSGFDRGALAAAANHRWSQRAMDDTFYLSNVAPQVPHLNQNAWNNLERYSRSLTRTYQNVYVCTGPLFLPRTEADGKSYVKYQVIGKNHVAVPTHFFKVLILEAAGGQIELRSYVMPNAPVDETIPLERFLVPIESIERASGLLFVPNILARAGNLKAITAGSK

stoichiometry N [1]: 2
Molecule: catalytically inactive H97A mutant of mouse endonuclease G lacking the N-terminal mitochondrial localization sequence (enzyme)

B1: decanucleotide d(CCGGCGCCGG) (dsDNA)
DNA 1: CCGGCGCCGG
DNA 2: CCGGCGCCGG
binding result [2]: binds
